We go through 3 molecules from patent US20160251440A1.

The target in assay [1] is human IL-23R, cell-expressed (human) (UniProt Q5VWK5). Kind of assay: cell-based or functional assay.
The target in assay [2] is recombinant IL-3Rα ectodomain (human) (UniProt P26951). Kind of assay: ELISA on recombinant IL-3Ra ectodomain (panel 'IL-3Ra ELISA', lower left).
The target in assay [3] is human CXCR4 (on cells, viral lipoparticles or membrane extracts) (human) (UniProt P61073). Kind of assay: ELISA on coated CXCR4 viral lipoparticles (upper right panel). A general note: In an ELISA, binding on a coated surface is turned into a signal by an enzyme label.
For assay [4] the target is unchanged. Kind of assay: cell-based or functional assay.
Assay [5] has the same target. As to the kind of experiment: FACS displacement of 30 nM biotin-SDF-1, Caki-CXCR4 cells.
The target is the same in assay [6]. As to the kind of experiment: [125I]-SDF-1 displacement, Hek-CXCR4 membrane extracts.
Assay [7] shares this target. Kind of assay: FACS, Caki-CXCR4 cells.

Sequence of human CXCR4 (on cells, viral lipoparticles or membrane extracts) (human) (P61073 whole entry): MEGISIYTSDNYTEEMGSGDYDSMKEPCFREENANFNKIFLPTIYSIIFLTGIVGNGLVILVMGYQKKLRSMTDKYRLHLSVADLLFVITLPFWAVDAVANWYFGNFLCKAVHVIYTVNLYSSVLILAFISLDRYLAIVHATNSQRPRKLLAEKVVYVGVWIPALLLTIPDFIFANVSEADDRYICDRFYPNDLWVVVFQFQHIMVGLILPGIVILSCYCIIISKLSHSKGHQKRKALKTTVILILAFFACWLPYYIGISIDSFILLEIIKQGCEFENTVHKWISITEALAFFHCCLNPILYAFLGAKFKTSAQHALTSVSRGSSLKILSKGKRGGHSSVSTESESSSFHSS
Sequence of human IL-23R, cell-expressed (human) (Q5VWK5 24-629): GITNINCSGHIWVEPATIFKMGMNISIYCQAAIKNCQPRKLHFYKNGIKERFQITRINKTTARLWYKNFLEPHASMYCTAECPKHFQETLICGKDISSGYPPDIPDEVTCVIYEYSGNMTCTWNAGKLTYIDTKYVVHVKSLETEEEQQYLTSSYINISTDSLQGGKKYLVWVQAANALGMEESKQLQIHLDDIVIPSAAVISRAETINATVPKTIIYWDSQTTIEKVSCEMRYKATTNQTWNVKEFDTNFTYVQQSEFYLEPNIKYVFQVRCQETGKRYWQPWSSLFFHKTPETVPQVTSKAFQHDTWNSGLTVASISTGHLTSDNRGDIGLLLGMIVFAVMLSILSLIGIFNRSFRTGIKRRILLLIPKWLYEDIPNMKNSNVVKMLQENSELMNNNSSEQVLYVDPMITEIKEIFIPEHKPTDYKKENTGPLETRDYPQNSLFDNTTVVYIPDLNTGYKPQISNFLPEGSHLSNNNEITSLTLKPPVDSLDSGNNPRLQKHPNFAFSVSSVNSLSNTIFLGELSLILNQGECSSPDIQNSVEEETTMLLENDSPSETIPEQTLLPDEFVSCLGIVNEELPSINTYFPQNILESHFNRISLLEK
Sequence of recombinant IL-3Rα ectodomain (human) (P26951 19-305): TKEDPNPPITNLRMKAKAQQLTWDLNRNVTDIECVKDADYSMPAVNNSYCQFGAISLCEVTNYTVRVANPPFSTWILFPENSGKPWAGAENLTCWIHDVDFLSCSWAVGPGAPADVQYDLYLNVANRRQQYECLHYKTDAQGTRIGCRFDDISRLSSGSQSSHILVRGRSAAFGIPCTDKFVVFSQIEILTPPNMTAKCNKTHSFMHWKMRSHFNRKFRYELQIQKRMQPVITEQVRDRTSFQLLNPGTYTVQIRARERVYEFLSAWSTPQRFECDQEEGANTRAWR

B1: IL23R#19-35GS-CD4#8 (bispecific antibody)
chain: EVQLVESGGGLVQPGGSLTLSCVASGRTFSTDVMGWFRQAPGKEREFVAAHRTSGISTVYAASVKGRFTISRDNAKNTVYLGMKSLKPEDTAVYVCAAGSDASGGYDYWGQGTLVTVSSGGGGSGGGGSGGGGSGGGGSGGGGSGGGGSGGGGSEVQLVESGGGSVQPGGSLTLSCGTSGRTFNVMGWFRQAPGKEREFVAAVRWSSTGIYYTQYADSVKSRFTISRDNAKNTVYLEMNSLKPEDTAVYYCAADTYNSNPARWDGYDFRGQGTLVTVSS
In assay [1], B1 registered an IC50, IL-17 release, PBMC D840 of 58.9 nM and a fold ctrl, IL-17 release of 1.7 fold.

B2: 14D09-35GS-55A01 (bispecific antibody)
chain: EVQLVESGGGLVQAGGSLRLSCVASGISSSKRNMGWYRQAPGKQRESVATISSGGNKDYTDAVKDRFTISRDTTKNTVYLQMNSLKPEDTAVYYCKIEAGTGWATRRGYTYWGQGTLVTVSSGGGGSGGGGSGGGGSGGGGSGGGGSGGGGSGGGGSEVQLVESGGGSVQAGGSLRLSCTTSGRALNMYVMGWFRQAPGNEREFVAATSSSGGSTSYPDSVKGRFTISRDNAKNTVYLQMNSLKPEDTAAYRCAASPYVSTPTMNILEEYRYWGQGTLVTVSS
On to B2, for which the EC50 (read off the curve) in assay [2] was 1 nM. In assay [3], this molecule gave an EC50 (read off the curve) of 7 nM. In assay [4], the Fold inc. vs CXCR4#1, Jurkat E6-1 worked out at 0.87 fold; the Fold inc. vs CXCR4#1, MOLM-13 is 2.39 fold; the IC50, CXCL-12 chemotaxis, Jurkat E6-1 is 12 nM; the IC50, CXCL-12 chemotaxis, MOLM-13 amounted to 3.6 nM.

B3: 238D4 (VHH, from a related filing)
VHH: EVQLMESGGGLVQAGGSLRLSCAASGRTFNNYAMGWFRRAPGKEREFVAAITRSGVRSGVSAIYGDSVKDRFTISRDNAKNTLYLQMNSLKPEDTAVYTCAASAIGSGALRRFEYDYSGQGTQVTVSS
Take B3: in assay [5], the IC50 is 2.1 nM. The Ki in assay [6] worked out at 5.4 nM. For the same molecule, the IC50, SDF-1 chemotaxis, Jurkat in assay [4] is 7.6 nM. The molecule also had an EC50 in assay [7] of 3.4 nM.

The EC50 (read off the curve) is the concentration at which the effect is half-maximal. For orientation: IC50 means the concentration at which inhibition is half-maximal. In general, Ki refers to the equilibrium dissociation constant of an inhibitor or competing ligand from its target. The term EC50 denotes the concentration at which the effect is half-maximal.
